Laboratory results taken from the RNAGym collection of RNA variant scans (doi:10.7554/elife.80360).

B1: Hairpin Ribozyme (parent)
chain: GUCCUCUUUCACGUGCGCGUGAAAGAGAGAAGUGAACCAGAGAAACACACGUUGUGGUAUAUUACCUGGUA

Variants of: B1
Experiment: self-cleavage, relative activity (ratio to wild type); higher = more cleavage; co-transcriptional

Variant	self-cleavage
A24G A28G	0.882
G25U A30C	0.146
G25C U53A	0.497
A24G A41U	1.05
A24C A71U	0.696
A24G G27U	0.303
A24U A43G	0.159
G25A C50U	0.315
A23U A41G	0.749
A24C U33G	0.152
A23U U52A	0.947
A23U U52C	0.677
A23U A43C	0.141
A24U U62A	0.2
A24U U62C	0.293
A23U U55G	0.448
A23U U55A	0.255
A24C U62A	0.3
A24C U62C	0.297
A23U G69A	0.335
A23U G69C	0.325
G25A U62G	0.125
A23U C65G	0.159
G25C A44C	0.174

Variant	self-cleavage
G25C G54C	0.139
A24C A44C	0.0908
A24G C65G	0.296
A23U C46G	0.0441
A23U C46A	0.224
A24G C48A	0.191
A23U A36C	0.596
A23U A49C	0.117
A24C A43C	0.0956
A24C A43G	0.157
G25A G57U	0.113
G25C G57C	0.12
G25C G57U	0.216
G25C G29C	0.166
G25C G29U	0.188
G25U A47U	0.205
A24U C37G	0.292
A24U C37U	0.734
A24C A45U	0.0791
G25U A39G	0.191
G25U G54A	0.496
G25C G27C	0.171
A24U G68U	0.22
G25C C46A	0.129

Variant	self-cleavage
A23U A45C	0.111
G25U G29C	0.153
G25U G29A	0.149
G25A G34C	1.34
G25U G32A	0.128
A24U A71C	1.27
A24C A49G	0.535
A24C A31G	0.66
G25A A39U	0.285
G25A A39G	0.192
A24U U33A	0.11
A24U U33G	0.135
A23U A39U	0.385
A23U A39G	0.298
A24G G34C	1.34
A24G G34A	0.862
A24G G34U	0.956
A24U C46U	0.264
A24U C46G	0.113
G25A U52C	0.7
G25C G56C	0.148
G25C G56U	0.153
A24G A36U	0.397
G25A C66G	0.133

Variant	self-cleavage
A24G C38U	0.31
A24U U67A	0.0716
A24U C66A	0.137
A24U C66G	0.207
A24U C66U	0.412
G25U G56A	0.21
G25U G56C	0.17
G25U G56U	0.223
G25U A49C	0.179
G25U A49G	0.217
G25A G56C	0.117
G25A G56A	0.105
A24G G25A	0.591
A24G G25C	0.668
G25C A30C	0.21
G25C A30G	0.157
G25C A30U	0.116
G25C A47C	0.217
A23U G29U	0.142
A24C U70A	0.985
A24U G29C	0.115
A24G G32A	0.14
A24G G32U	0.0918
A24G G32C	0.242

Variant	self-cleavage
A24U U60A	0.57
A24U U60G	0.531
G25U G40U	0.132
A24C U55G	0.266
A24U G34A	1.02
A24U G34C	1.18
A24U G34U	1.22
A24U G25U	0.682
A23U C50U	0.376
G25U A59G	0.108
G25C C50U	0.192
A24G U53G	0.591
A24U U70A	0.877
A24U U70C	0.743
A24U U70G	0.533
A24G A31G	0.662
A24C A35C	0.778
G25U A36G	0.639
G25C U67C	0.134
G25C A39G	0.168
G25A A26G	0.298
G25A A26C	0.124
A23U C38U	0.312
G25U A35G	0.656

Variant	self-cleavage
G25A U60A	0.626
G25A U60C	0.976
G25A A41U	0.85
G25A A41C	0.814
A24C U58G	0.761
A24C U58A	0.265
G25C A61G	0.115
A24G U70G	0.834
A24G U58C	0.804
A24G U58G	0.517
A24G U58A	0.628
A24G C37G	0.359
A24G C37A	0.345
A24G C37U	0.294
G25A A43U	0.186
G25A A43C	0.136
A24C A41U	0.996
A24C A41C	1.01
A23U G27C	0.148
A24G G57U	0.307
A23U A61U	0.0982
A24C C50G	0.326
G25C C37U	0.502
G25A A35U	0.39

Variant	self-cleavage
G25A A35G	0.738
A24C A30U	0.146
A24C A30C	0.242
G25U C66G	0.177
G25U C66A	0.182
G25U A31U	0.166
G25U A31C	0.176
A24G G54U	0.607
A24G G54A	0.387
G25C G32C	0.116
A24C G34A	0.895
A24C A47U	0.0898
A23U A64G	0.474
A23U A64C	0.221
A23U A64U	0.178
G25A G29U	0.164
G25A G29C	0.118
A24G G56U	0.122
A24G G56C	0.14
G25U C38A	0.216
A24C G27C	0.228
A24U A47U	0.144
G25U C46G	0.153
